Our source for the Km values is PMC11359734, “Two enzymes contribute to citrate production in the mitochondrion of Toxoplasma gondii” (The Journal of Biological Chemistry, 2024).

One may read the Km as the concentration of substrate that gives half-maximal velocity.

Substrate in series [1]: O=C(O)CC(=O)C(=O)O
Kind of series: citrate synthase kit, OD412, 96-well plate. The series is classed as biochemical, Toxoplasma gondii. The settings on record: co-substrate acetyl-CoA.

Substrate in series [2]: CC(=O)SCCNC(=O)CCNC(=O)[C@H](O)C(C)(C)COP(=O)(O)OP(=O)(O)OC[C@H]1O[C@@H](n2cnc3c(N)ncnc32)[C@H](O)[C@@H]1OP(=O)(O)O
Briefly: citrate synthase kit, OD412, 96-well plate. The series is classed as biochemical, Toxoplasma gondii. The settings on record: co-substrate oxaloacetate.

B1: TgPrpC (Toxoplasma gondii) (protein)
chain: QSGVHVPTAPSDCAFSPDWRSVCCSQTFSAVSTTTLERQITKENSKNGIECLNAESENCFGFALLLRHRCGLHSGSVDPPLCSLTRRKPTWQRQTTAFLSSTMARQPLETSYEQRKDSEFSPGLEGVVAGESAISSVGPASLAGLTYRGYRIDDLTEKATFEEVVFLLLHDRLPTKQELDAQHQELVLARRLPPSLKACLEYFPKNSHPMDVVRTGCSMMGMLEQENAPPDQQAKIGLRLIGMYSSMLLYWYHYAHHGIRICEETDPADSVAAHFLKLLNQHSSGPHPLEVKAVDISLILYAEHDFNASTFAARVTAATRSDIYSAICSAIGTLKGPLHGGANEAAIMFLRKLRDMQQADQELESIWRHHERVMGFGHRLYKEGDPRSHIMMKVALDLAQNAPKKDPNLVQIAQHIEERMEKEKHLPANVDFPCALAYHQCGIPTDLYTPLFVLARTAGWTAHIMEQRANNRLIRPVSHYVGPPVRPFPSFEEREKLANPSEQSRSR
notes: residues 113-619 (N-terminal part removed), His-tagged fusion from pESUMO vector, expressed in E. coli Transetta (DE3), Ni2+ column
Take B1: the results for the Km in series [1] and in series [2] were 1.661 µM and 1.169 µM, respectively.

B2: TgCS1 (Toxoplasma gondii) (protein)
chain: SARSVCGGLSNAEARAAVEAALDALAEKVQEAAEPKRELLKTLRKEHGTVVISEATLSTVCGGMRGLTAILTETSTLHAEKGILYRGLTINECLAKLPRMHKEEYPAVEGLIWFLMTGSIPTVNEVELLSNALYALSLSSASSSPSAPFIPPHVGKVLDAVPPSTHPMTQLVMAAAALQPTSELAQAYRHKTVSRHDLWKPALADALSLIAKNAVMAARIFRRSFRDGQEIDPAANFGHMMGFNSKEHQELFRLYLFLHADHEGGNVSAHAAHVVGSALSDPFLAFSAGMAGLAGPLHGLANQECLNWLRDVHCKLNGAAPTRENVKKIAEDTLASGRVIPGYGHAVLRVTDPRFTAQREFALKYLKDDELFQLLNVAYNTIPDVLLATGKVKNPYPNVDCHSGVLLQHFGITEADFYTVLFGVSRAIGIACQYVWDRILGLPIERPKSTTLDLLKAACVERKGN
notes: residues 95-559 (N-terminal part removed), His-tagged fusion from pESUMO vector, expressed in E. coli Transetta (DE3), Ni2+ column
Regarding B2, the results for the Km in series [1] and in series [2] were 1.423 µM and 0.4693 µM, respectively.
